Kd, koff and kon data for 2 molecules are collected here from publication PMC3538003, “A full-length recombinant Plasmodium falciparum PfRH5 protein induces inhibitory antibodies that are effective across common PfRH5 genetic variants” (Vaccine, 2013).

Test [1] addresses 3D7 PfRH5-Cd4-biotin (P. falciparum Reticulocyte Binding Protein Homologue 5, 3D7 variant) (Plasmodium falciparum (3D7)). The experiment in a line: SPR; equilibrium analysis; biotinylated PfRH5-Cd4 captured on a streptavidin chip, biotinylated rat Cd4d3+4 in the reference cell; serial dilutions of basigin-Cd4-6H injected at 20 µl/min; BIAcore T100, 37°C, HBS-EP; regeneration with 2M NaCl. A general note: Surface plasmon resonance follows binding to a sensor surface in real time, without labels.

In test [2] the target is 7G8 PfRH5-Cd4-biotin (P. falciparum Reticulocyte Binding Protein Homologue 5, 7G8 variant) (Plasmodium falciparum (7G8)). The test is described as above.
In test [3] the target is GB4 PfRH5-Cd4-biotin (P. falciparum Reticulocyte Binding Protein Homologue 5, GB4 variant) (Plasmodium falciparum (GB4)). The test is described as above.
Test [4] has as its target 7G8 PfRH5-Cd4-biotin (P. falciparum Reticulocyte Binding Protein Homologue 5, 7G8 variant) (Plasmodium falciparum (7G8)). Described as above. The source holds these as a separate data set.
Test [5] deals with GB4 PfRH5-Cd4-biotin (P. falciparum Reticulocyte Binding Protein Homologue 5, GB4 variant) (Plasmodium falciparum (GB4)). Described as above. This is another data set of the same source.
For test [6] the target is unchanged. The description is as above. This is another data set of the same source.
For test [7], the target named is 3D7 PfRH5-Cd4-biotin (P. falciparum Reticulocyte Binding Protein Homologue 5, 3D7 variant) (Plasmodium falciparum (3D7)). The experiment in a line: SPR; kinetic analysis, simple 1:1 model fitted globally; biotinylated PfRH5-Cd4 captured on a streptavidin chip, biotinylated rat Cd4d3+4 in the reference cell; serial dilutions of basigin-Cd4-6H injected at 100 µl/min; BIAcore T100, 37°C, HBS-EP; regeneration with 2M NaCl.

The target is the same in test [8]. The description is as above. This is another data set of the same source.
The target is the same in test [9]. The test is described as above. The source holds these as a separate data set.
Test [10] addresses 7G8 PfRH5-Cd4-biotin (P. falciparum Reticulocyte Binding Protein Homologue 5, 7G8 variant) (Plasmodium falciparum (7G8)). The test is described as above.
Test [11] addresses GB4 PfRH5-Cd4-biotin (P. falciparum Reticulocyte Binding Protein Homologue 5, GB4 variant) (Plasmodium falciparum (GB4)). The description is as above.
Test [12] concerns the target 7G8 PfRH5-Cd4-biotin (P. falciparum Reticulocyte Binding Protein Homologue 5, 7G8 variant) (Plasmodium falciparum (7G8)). The test is described as above. The source holds these as a separate data set.
The target is the same in test [13]. The test is described as above. This is another data set of the same source.
Test [14] concerns the target GB4 PfRH5-Cd4-biotin (P. falciparum Reticulocyte Binding Protein Homologue 5, GB4 variant) (Plasmodium falciparum (GB4)). The description is as above. The source holds these as a separate data set.
Test [15] shares this target. The test is described as above. This is another data set of the same source.
Test [16] concerns the target human basigin extracellular region, soluble Cd4d3+4-6H-tagged (basigin-Cd4-6H) (human, UniProt P35613 138-325). The experiment in a line: SPR; BIAcore T100; monomeric biotinylated PfRH5-Cd4 bait captured on a streptavidin-coated chip, Cd4-biotin in the reference flow cell; serial dilutions of purified basigin-Cd4-6H injected at 20 ul/min (equilibrium) or 100 ul/min (kinetics); Langmuir isotherm fit. The settings on record: both partners purified.

Read-outs that look alike come from different tables or passages of the source.

As a reminder, the Kd is the equilibrium constant for the complex coming apart. Low values mean higher affinity, high ones lower affinity. For orientation: koff means the rate constant with which the complex falls apart. One may read the kon as the rate constant with which the complex forms. For “basigin-L-Cd4d3+4-6H (extracellular region of human basigin) (from UniProt P35613 138-325) (domain or fragment)”, the dissociation constant Kd was found to be 1600 nM in [1]; 1000 nM in test [2]; 1100 nM in [3]; 800 nM in test [4]; 1000 nM in test [5]; 800 nM in [6]. Further, the koff in test [7] was found to be 0.238 s⁻¹; in test [8], 0.236 s⁻¹; in test [9], 0.24 s⁻¹; in test [10] it was 0.256 s⁻¹; in test [11], 0.216 s⁻¹; in test [12] it was 0.251 s⁻¹. Besides, the off-rate constant (koff) came to 0.245 s⁻¹ in test [13], 0.23 s⁻¹ in [14] and 0.244 s⁻¹ in test [15]. Further, the kon in test [7] was 93000 M⁻¹ s⁻¹; in test [8], 95600 M⁻¹ s⁻¹; in test [9] it was 89600 M⁻¹ s⁻¹; in [10] it was 128000 M⁻¹ s⁻¹; in test [11] it was 118000 M⁻¹ s⁻¹; in [12], 125000 M⁻¹ s⁻¹. Further, the association rate constant (kon) amounted to 122000 M⁻¹ s⁻¹ in test [13], 110000 M⁻¹ s⁻¹ in [14] and 95900 M⁻¹ s⁻¹ in test [15].

B1: 7G8 PfRH5-Cd4-biotin (P. falciparum Reticulocyte Binding Protein Homologue 5, 7G8 variant) (ligand)
chain: FENAIKKTKNQENNLALLPIKSTEEEKDDIKNGKDIKKEIDNDKENIKTNNAKDHSTYIKSYLNTNVNDGLKYLFIPSHNSFIKKYSVFNQINDGMLLNEKNDVKNNEDYKNVDYKNVNFLQYHFKELSNYNIANSIDILQEKEGHLDFVIIPHYTFLDYYKHLSYNSIYHKSSTYGKYIAVDAFIKKINEAYDKVKSKCNDIKNDLIATIKKLEHPYDINNKNDDSYRYDISEEIDDKSEETDDETEEVEDSIQDTDSNHAPSNKKKNDLMNRAFKKMMDEYNTKKKKLIKCIKNHENDFNKICMDMKNYGTNLFEQLSCYNNNFCNTNGIRYHYDEYIHKLILSVKSKNLNKDLSDMTNILQQSELLLTNLNKKMGSYIYIDTIKFIHKEMKHIFNRIEYHTKIINDKTKIIQDKIKLNIWRTFQKDELLKRILDMSNEYSLFITSDHLRQMLYNTFYSKEKHLNNIFHHLIYVLQMKFNDVPIKMEYFQTYKKNKPLTQ
modifications: monobiotinylated (biotin)
For the molecule B1, the Kd in test [16] was 900 nM.
